# “Also recorded” adds a separate entry of the source.
# Assays:
# [1] = target: intact Tlr4 protein, endogenous in RAW 264.7 macrophages (mouse) (UniProt Q9QUK6); assay: cell-based or functional assay
# [2] = test system: RAW 264.7 cells; assay: LPS-induced TNF production (EC50 shift) in RAW 264.7 clones expressing Tlr4 constructs, L-929 cytotoxicity assay; assay type: cell-based, murine; conditions: for effect on LPS signaling (in words): over-expression of truncated constructs in RAW 264.7 cells; for leftward shift of the LPS EC50 curve (augmentation of the LPS response): over-expression in RAW 264.7, TNF production; for rightward EC50 shift (inhibition of LPS signaling): membrane-associated cytoplasmic domain constructs lacking the entire ectodomain
# Procedure: FIG. 15C. Composite analysis of the shift in EC50 caused by expression of Tlr4^Lps-n and Tlr4^Lps-d in RAW 264.7 cells. Each point represents an EC50 determination performed on ten independent clones at the stated LPS concentration. For each clone, four replicate assays were performed at each concentration. […] Transfected macrophages were plated in 24 well plates at a density of 5×10^5 cells per well, and covered with 1.0 ml of DMEM supplemented with 10% FBS. LPS was added to each well at the concentration indicated. After 15 hours of incubation the medium was harvested, and TNF concentration was assayed in the standard L-929 cytotoxicity system^36, using cycloheximide at a concentration of 100·g/ml to potentiate killing. After 15 hours of exposure to diluted macrophage medium or to mouse TNF applied at a range of 8 standard concentrations, the number of viable cells was determined by staining with crystal violet. A standard curve relating % cytotoxicity to TNF concentration (not shown) was generated using Prism 3.0, and was based on an assumption of sigmoidicity. Variance among replicate samples was typically beneath 5% of the mean, and departures of individual samples from the sigmoid plot were typically smaller still. Linear estimates of TNF concentration in unknown samples were based on non-linear interpolation from the standard curve (also performed using Prism 3.0). The curves shown were generated assuming sigmoidicity of response with variable slope for each curve, and further assigning a maximum response value of 1760 pg TNF, which yielded an optimal fit for the most responsive curve. Error bars indicate standard deviation among clones at each LPS concentration. Log EC50 values and standard error values are shown in the inset table.
# FIG. 15D. Shifts of the log EC50, determined for individual clones. A more conservative approach, in which log EC50 values were determined for individual clones transfected with vector alone, or with the Tlr4^Lps-n or Tlr4^Lps-d constructs. The log EC50 data were then represented as a scatter plot, in which each point represents the log EC50 determination of a single clone (confidence limits not shown for the sake of simplicity), and is derived from 24 separate TNF assays performed on samples stimulated over a 10^4-fold range of LPS concentration (100 pg/ml to 1·g/ml, as well as an unstimulated control). In most instances, two determinations of log EC50 were made independently for each clone. The mean and standard error of each cluster is shown in the inset, together with p values defining the likelihood that the EC50 displacements are attributable to chance. Data were analyzed by means of a one-tailed t test, using Welch's correction for unequal variance.
# In order to directly examine the role of Tlr4 as a transducer of the LPS signal in macrophages, the inventors expressed the normal mouse protein—and various mutant forms—in RAW 264.7 macrophages have been expressed (FIG. 14; Table VIII). These cells of murine origin are highly responsive to LPS, and are known to express the Tlr4 mRNA (Poltorak et al, 1998b). Unlike cell lines of non-myeloid origin (i.e., 293 cells or CHO cells), they express all proteins required for the elicitation of a biologically relevant response to LPS (e.g., TNF production). As such, they may be used to determine whether Tlr4 is a limiting factor in the initiation of an LPS signal, and to examine the mechanism by which the Tlr4^Lps-d allele exerts its dominant inhibitory effect on signaling. This was determined by performing more than 3,000 assays of TNF production, induced over an extensive range of LPS concentrations in numerous stable clones, since individual clones show considerable background variability in LPS responses. Moreover, because culture conditions can affect the sensitivity of the TNF assay and production of TNF by LPS-stimulated cells, all transfected and control clones were induced and assayed in parallel. […]
molecule,measurement,setting,value
"flag-tagged Tlr4^Lps-d cytoplasmic domain construct, residues 630-835 (P712H) (from UniProt Q9QUK6 630-835) (receptor)",shift of the LPS EC50 for TNF production in RAW 264.7 clones,[1],39 fold
"flag-tagged Tlr4^Lps-n cytoplasmic domain construct, residues 630-835 (from UniProt Q9QUK6 630-835) (receptor)",shift of the LPS EC50 for TNF production in RAW 264.7 clones,[1],4 fold
"Ectodomain: membrane-anchored truncated Tlr4, residues 22–660, lacking the entire cytoplasmic domain (protein, left off: small tags and cut ends, membrane-anchored truncated Tlr4, residues 22–660, lacking the entire cytoplasmic domain) PGSLNPCIEVVPNITYQCMDQKLSKVPDDIPSSTKNIDLSFNPLKILKSYSFSNFSELQWLDLSRCEIETIEDKAWHGLHHLSNLILTGNPIQSFSPGSFSGLTSLENLVAVETKLASLESFPIGQLITLKKLNVAHNFIHSCKLPAYFSNLTNLVHVDLSYNYIQTITVNDLQFLRENPQVNLSLDMSLNPIDFIQDQAFQGIKLHELTLRGNFNSSNIMKTCLQNLAGLHVHRLILGEFKDERNLEIFEPSIMEGLCDVTIDEFRLTYTNDFSDDIVKFHCLANVSAMSLAGVSIKYLEDVPKHFKWQSLSIIRCQLKQFPTLDLPFLKSLTLTMNKGSISFKKVALPSLSYLDLSRNALSFSGCCSYSDLGTNSLRHLDLSFNGAIIMSANFMGLEELQHLDFQHSTLKRVTEFSAFLSLEKLLYLDISYTNTKIDFDGIFLGLTSLNTLKMAGNSFKDNTLSNVFANTTNLTFLDLSKCQLEQISWGVFDTLHRLQLLNMSHNNLLFLDSSHYNQLYSLSTLDCSFNRIETSKGILQHFPKSLAFFNLTNNSVACICEHQKFLQWVKEQKQFLVNVEQMTCATPVEMNTSLVLDFNNSTCYMYKTIISVSVVSVIVVSTVAFLIYHFYFHLILIA",effect on LPS signaling (in words),[2]; listed as Tlr4 ectodomain,"inhibited the LPS response only weakly, if at all; also recorded: fails to inhibit LPS signaling"
same,effect on LPS signaling (in words),[2]; listed as truncated version of the Tlr4 protein,only a weak inhibitory effect on LPS signaling
"Tlr4^Lps-n: flag-tagged full-length normal mouse Tlr4, residues 22–835, expressed in RAW 264.7 cells (protein, left off: small tags and cut ends, flag-tagged full-length normal mouse Tlr4, residues 22–835, expressed in RAW 264.7 cells) PGSLNPCIEVVPNITYQCMDQKLSKVPDDIPSSTKNIDLSFNPLKILKSYSFSNFSELQWLDLSRCEIETIEDKAWHGLHHLSNLILTGNPIQSFSPGSFSGLTSLENLVAVETKLASLESFPIGQLITLKKLNVAHNFIHSCKLPAYFSNLTNLVHVDLSYNYIQTITVNDLQFLRENPQVNLSLDMSLNPIDFIQDQAFQGIKLHELTLRGNFNSSNIMKTCLQNLAGLHVHRLILGEFKDERNLEIFEPSIMEGLCDVTIDEFRLTYTNDFSDDIVKFHCLANVSAMSLAGVSIKYLEDVPKHFKWQSLSIIRCQLKQFPTLDLPFLKSLTLTMNKGSISFKKVALPSLSYLDLSRNALSFSGCCSYSDLGTNSLRHLDLSFNGAIIMSANFMGLEELQHLDFQHSTLKRVTEFSAFLSLEKLLYLDISYTNTKIDFDGIFLGLTSLNTLKMAGNSFKDNTLSNVFANTTNLTFLDLSKCQLEQISWGVFDTLHRLQLLNMSHNNLLFLDSSHYNQLYSLSTLDCSFNRIETSKGILQHFPKSLAFFNLTNNSVACICEHQKFLQWVKEQKQFLVNVEQMTCATPVEMNTSLVLDFNNSTCYMYKTIISVSVVSVIVVSTVAFLIYHFYFHLILIAGCKKYSRGESIYDAFVIYSSQNEDWVRNELVKNLEEGVPRFHLCLHYRDFIPGVAIAANIIQEGFHKSRKVIVVVSRHFIQSRWCIFEYEIAQTWQFLSSRSGIIFIVLEKVEKSLLRQQVELYRLLSRNTYLEWEDNPLGRHIFWRRLKNALLDGKASNPEQTAEEEQETATWT",leftward shift of the LPS EC50 curve (augmentation of the LPS response),[2]; composite EC50 analysis,30 fold
same,leftward shift of the LPS EC50 curve (augmentation of the LPS response),"[2]; composite EC50 analysis, listed as Tlr4",about 30 fold
"Tlr4^Lps-d: flag-tagged full-length mouse Tlr4 with P712H mutation, residues 22–835, expressed in RAW 264.7 cells (protein, left off: small tags and cut ends, flag-tagged full-length mouse Tlr4 with P712H mutation, residues 22–835, expressed in RAW 264.7 cells) PGSLNPCIEVVPNITYQCMDQKLSKVPDDIPSSTKNIDLSFNPLKILKSYSFSNFSELQWLDLSRCEIETIEDKAWHGLHHLSNLILTGNPIQSFSPGSFSGLTSLENLVAVETKLASLESFPIGQLITLKKLNVAHNFIHSCKLPAYFSNLTNLVHVDLSYNYIQTITVNDLQFLRENPQVNLSLDMSLNPIDFIQDQAFQGIKLHELTLRGNFNSSNIMKTCLQNLAGLHVHRLILGEFKDERNLEIFEPSIMEGLCDVTIDEFRLTYTNDFSDDIVKFHCLANVSAMSLAGVSIKYLEDVPKHFKWQSLSIIRCQLKQFPTLDLPFLKSLTLTMNKGSISFKKVALPSLSYLDLSRNALSFSGCCSYSDLGTNSLRHLDLSFNGAIIMSANFMGLEELQHLDFQHSTLKRVTEFSAFLSLEKLLYLDISYTNTKIDFDGIFLGLTSLNTLKMAGNSFKDNTLSNVFANTTNLTFLDLSKCQLEQISWGVFDTLHRLQLLNMSHNNLLFLDSSHYNQLYSLSTLDCSFNRIETSKGILQHFPKSLAFFNLTNNSVACICEHQKFLQWVKEQKQFLVNVEQMTCATPVEMNTSLVLDFNNSTCYMYKTIISVSVVSVIVVSTVAFLIYHFYFHLILIAGCKKYSRGESIYDAFVIYSSQNEDWVRNELVKNLEEGVPRFHLCLHYRDFIHGVAIAANIIQEGFHKSRKVIVVVSRHFIQSRWCIFEYEIAQTWQFLSSRSGIIFIVLEKVEKSLLRQQVELYRLLSRNTYLEWEDNPLGRHIFWRRLKNALLDGKASNPEQTAEEEQETATWT",composite range of responsiveness (mean EC50 of Tlr4^Lps-d transfected clones/mean EC50 of Tlr4^Lps-n transfected clones),[2]; LPS EC50 measured for each individual clone,1120 fold
same,"difference in the mean response at the EC50 point, Tlr4^Lps-n vs Tlr4^Lps-d over-expression",[2]; composite EC50 analysis,"74,000 fold"
same,shift to the right of the LPS EC50 curve (suppression of the LPS response),"[2]; composite EC50 analysis, full-length protein in RAW 264.7, TNF production",2600 fold
"Tlr4^Lps-d Cyt. Dom.: membrane-associated Tlr4 cytoplasmic domain with P712H, residues 630–835, with flag peptide, lacking the ectodomain (protein, left off: small tags and cut ends, membrane-associated Tlr4 cytoplasmic domain with P712H, residues 630–835, with flag peptide, lacking the ectodomain) TIISVSVVSVIVVSTVAFLIYHFYFHLILIAGCKKYSRGESIYDAFVIYSSQNEDWVRNELVKNLEEGVPRFHLCLHYRDFIHGVAIAANIIQEGFHKSRKVIVVVSRHFIQSRWCIFEYEIAQTWQFLSSRSGIIFIVLEKVEKSLLRQQVELYRLLSRNTYLEWEDNPLGRHIFWRRLKNALLDGKASNPEQTAEEEQETATWT",rightward EC50 shift (inhibition of LPS signaling),[2],39 fold
"Tlr4^Lps-n Cyt. Dom.: membrane-associated Tlr4 cytoplasmic domain, normal sequence, residues 630–835, with flag peptide, lacking the ectodomain (protein, left off: small tags and cut ends) TIISVSVVSVIVVSTVAFLIYHFYFHLILIAGCKKYSRGESIYDAFVIYSSQNEDWVRNELVKNLEEGVPRFHLCLHYRDFIPGVAIAANIIQEGFHKSRKVIVVVSRHFIQSRWCIFEYEIAQTWQFLSSRSGIIFIVLEKVEKSLLRQQVELYRLLSRNTYLEWEDNPLGRHIFWRRLKNALLDGKASNPEQTAEEEQETATWT",rightward EC50 shift (inhibition of LPS signaling),[2],4 fold

# Source: US7029861B1, “LPS-response gene compositions and methods” (Board of Regents, The University of Texas System, priority 1998, dated 2006)
